Laboratory results reported in US11371056B2, “HPPD variants and methods of use” (BASF Agricultural Solutions Seed US LLC, priority 2017, dated 2022).
Numbering of substitutions follows the chain as printed.

B1: SEQ ID NO: 2 (protein)
chain: MADLYENPMGLMGFEFIEFASPTPGTLEPIFEIMGFTKVATHRSKNVHLYRQGEINLILNNEPNSIASYFAAEHGPSVCGMAFRVKDSQKAYNRALELGAQPIHIDTGPMELNLPAIKGIGGAPLYLIDRFGEGSSIYDIDFVYLEGVERNPVGAGLKVIDHLTHNVYRGRMVYWANFYEKLFNFREARYFDIKGEYTGLTSKAMSAPDGMIRIPLNEESSKGAGQIEEFLMQFNGEGIQHVAFLTDDLVKTWDALKKIGMRFMTAPPDTYYEMLEGRLPDHGEPVDQLQARGILLDGSSVEGDKRLLLQIFSETLMGPVFFEFIQRKGDDGFGPWNFAQLFESIERDQVRRGVLTAD
modifications: mutant HPPD polypeptide
B2: SEQ ID NO:62: mutant HPPD polypeptide: 213K 215A 264L 268G 270E 315Q 335P 336D 337S 340V 344Q 345M (protein)
chain: MADLYENPMGLMGFEFIEFASPTPGTLEPIFEIMGFTKVATHRSKNVHLYRQGEINLILNNEPNSIASYFAAEHGPSVCGMAFRVKDSQKAYNRALELGAQPIHIDTGPMELNLPAIKGIGGAPLYLIDRFGEGSSIYDIDFVYLEGVERNPVGAGLKVIDHLTHNVYRGRMVYWANFYEKLFNFREARYFDIKGEYTGLTSKAMSAPDGMIKIALNEESSKGAGQIEEFLMQFNGEGIQHVAFLTDDLVKTWDALKKIGMRFLTAPGDEYYEMLEGRLPDHGEPVDQLQARGILLDGSSVEGDKRLLLQIFSEQLMGPVFFEFIQRKGDDGFGPDSFKVLFEQMERDQVRRGVLTAD
modifications: mutant HPPD polypeptide
notes: mutant HPPD polypeptide: 213K 215A 264L 268G 270E 315Q 335P 336D 337S 340V 344Q 345M
B3: SEQ ID NO: 64 (protein)
chain: B2 chain with A215P, D336H, Q344S
modifications: mutant HPPD polypeptide
B4: SEQ ID NO: 43 (protein)
chain: B2 chain with A215P, L264M, Q315K, D336H, Q344S
modifications: mutant HPPD polypeptide
B5: SEQ ID NO: 23 (protein)
chain: B2 chain with K213R, A215P, L264M, D336H, Q344S, M345I
modifications: mutant HPPD polypeptide

How the values were obtained:
[1] = system: Pseudomonas fluorescens HPPD polypeptide (wild-type and mutants); assay: Coupled HPPD activity assay: turnover and residual turnover in crude HPPD polypeptide extracts with and without Cmpd. 1; format: biochemical; conditions: for Turnover: absence of Cmpd. 1; for Turnover / Residual turnover: changes in absorbance (OD) at 320 nm in the coupled assay, 30 min; for Residual turnover: presence of 100 μM Cmpd. 1
[2] = system: soybean plants (transgenic T0 events, wild-type); assay: Greenhouse spray test of T0 soybean events with Cmpd. 1, leaf area damage score; format: in vivo; design: key to leaf area damage score, 25th percentile / leaf area damage score, Interquartile range: damage score 0 (no damage) to 100 (complete bleaching); conditions: for leaf area damage score, 25th percentile / leaf area damage score, 75th percentile / leaf area damage score, 90th percentile / leaf area damage score, Median: T0 soybean events expressing the polypeptide; for leaf area damage score, 25th percentile / leaf area damage score, 75th percentile / leaf area damage score, 90th percentile / leaf area damage score, Median / leaf area damage score, Interquartile range: five days after application of Cmpd. 1 at 300 g AI/ha; for leaf area damage score, 75th percentile / leaf area damage score, 90th percentile / leaf area damage score, Median: scale 0 to 100; for leaf area damage score, Median: 50th percentile; for leaf area damage score, Interquartile range: difference between 75th and 25th percentile, T0 soybean events
Text: Tolerant green shoots were transferred to rooting media or grafted. Rooted plantlets were transferred to the greenhouse after an acclimation period. Plants containing the transgene were then sprayed with HPPD inhibitor herbicides, as for example with mesotrione at a rate of 300-600 g AI/ha, or with Cmpd. 1 (2-chloro-3-(methylsulfanyl)-N-(1-methyl-1H-tetrazol-5-yl)-4-(trifluoromethyl)benzamide) at a rate of 150 g-300 g AI/ha supplemented with ammonium sulfate and methyl ester rapeseed oil. Five to ten days after the application, the symptoms due to the application of the herbicide were evaluated and compared to the symptoms observed on wild-type plants under the same conditions.
For example, T0 soybean plants having a “plant expression cassette”, which includes an HPPD inhibitor tolerant HPPD polypeptide of the present invention, were tested towards the tolerance of Cmpd. 1.
Prior greenhouse trials with the transgenic plants, soybean transformants were routinely analyzed for the expression and presence of the transgenes using the ELISA protein detection method (see detailed description under item D and H). Only plants recovering in the selection media and having a detectable HPPD transgene protein expression were used for the herbicide tolerance analysis. A DeVries Tracker Sprayer was calibrated prior to each spraying. The chemical formulation used for Cmpd. 1 was supplemented with ammonium sulfate and methylated rape seed oil. Spray tests were conducted with a concentration, which equals to 300 grams AI per hectare (300 g AI/ha).
In greenhouse trials, independent T0 soybean events containing an exemplary mutant HPPD polypeptide were sprayed with the HPPD inhibitor herbicide Cmpd. 1 (2-chloro-3-(methylsulfanyl)-N-(1-methyl-1H-tetrazol-5-yl)-4-(trifluoromethyl)benzamide) at the rate of 300 grams AI/ha, supplemented with ammonium sulfate and methyl ester rapeseed oil. Five days after the application, the leaf damaged area due to the HPPD inhibitor herbicide is scored in a scale from 0 (no damage) to 100 (complete bleaching). Under those conditions, the wild-type plants were completely bleached and their damage scores were in the 95-100 range.
Table 5 presents the distribution of the HPPD inhibitor herbicide damage score data as percentile for exemplary mutant HPPD inhibitor herbicide tolerant polypeptides (SEQ ID NOs). The percentiles normalize ranks of the damage score from an individual plant in a population. […] The median is the 50th percentile. Half the values had higher damage scores; half had lower damage scores. The value of the 75th and 90th percentile is the damage score where 75% and 90% of the soybean events had lower damage scores, respectively. The difference between the 75th and 25th percentile is called the interquartile range and a marker to quantify scattering in the population. All constructs had only one single cassette insertion in the soybean genome.

soybean shoots = assay: Soybean transformation, selection of shoots with tembotrione (greening or bleaching); format: in vivo; conditions: wild-type soybean shoots treated with tembotrione
Text: Soybean transformation was achieved by using methods well known in the art, such as the one described using the Agrobacterium tumefaciens mediated transformation soybean half-seed explants using essentially the method described by Paz et al. (2006), Plant cell Rep. 25:206. Transformants were identified by using the HPPD inhibitor herbicide “tembotrione” as selection marker. The appearance of green shoots was observed, and documented as an indicator of tolerance to the HPPD inhibitor herbicide tembotrione.

[3] = scale 0 (no damage) to 100 (complete bleaching)

Molecule | Turnover [1] | Residual turnover [1] | damage scores ([2]; wild-type soybean plants, Cmpd. 1 300 g AI/ha, five days after application, scale 0 (no damage) to 100 (complete bleaching)) | bleaching of shoots (soybean shoots) | leaf area damage score, 25th percentile [2, 3] | leaf area damage score, 75th percentile [2] | leaf area damage score, 90th percentile [2] | leaf area damage score, Median [2] | leaf area damage score, Interquartile range [2] | turnover and residual turnover, comparison in words ([1]; 100 μM Cmpd. 1, Table 3) | Residual turnover [%] ([1]; 100 μM Cmpd. 1, normalised to turnover without inhibitor)
CSc1c(C(F)(F)F)ccc(C(=O)Nc2nnnn2C)c1Cl [Cmpd. 1, 2-chloro-3-(methylsulfanyl)-N-(1-methyl-1H-tetrazol-5-yl)-4-(trifluoromethyl)benzamide, reference compound] | 0.236 | 0.042 | 95-100 |  |  |  |  |  |  |  | 
CS(=O)(=O)c1ccc(C(=O)C2C(=O)CCCC2=O)c(Cl)c1COCC(F)(F)F [tembotrione, 2-[2-chloro-4-(methylsulfonyl)-3-[(2,2,2,-trifluoroethoxy)methyl]benzoyl]-1,3-cyclohexanedione] |  |  |  | entirely bleached |  |  |  |  |  |  | 
B1 |  |  |  |  | 15.0 | 45.0 | 87.0 | 20.0 | 30.0 |  | 
B2 | 0.209 | 0.166 |  |  | 10.0 | 25.0 | 35.0 | 15.0 | 15.0 | increase significantly the turnover and the residual turnover | 79
B3 |  |  |  |  | 5.0 | 25.0 | 38.0 | 10.0 | 20.0 |  | 
B4 |  |  |  |  | 10.0 | 25.0 | 35.0 | 10.0 | 15.0 |  | 
B5 |  |  |  |  | 10 | 22.5 | 55.0 | 10 | 12.5 |  | 
